Biological target: ETS1:RUNX1 (Homo sapiens, UniProt P14921;Q01196 full;full)
Assay: gcPBM; 1 nM ETS1 + 25 nM RUNX1, anti-ETS1 signal, normalised
Conditions: tags: N-terminal GST (pDEST15), kept (PMC6008103); copies: 1;1; label: surface-attached array probe

Chain of ETS1:RUNX1 (P14921 whole entry, chain 1 of 2): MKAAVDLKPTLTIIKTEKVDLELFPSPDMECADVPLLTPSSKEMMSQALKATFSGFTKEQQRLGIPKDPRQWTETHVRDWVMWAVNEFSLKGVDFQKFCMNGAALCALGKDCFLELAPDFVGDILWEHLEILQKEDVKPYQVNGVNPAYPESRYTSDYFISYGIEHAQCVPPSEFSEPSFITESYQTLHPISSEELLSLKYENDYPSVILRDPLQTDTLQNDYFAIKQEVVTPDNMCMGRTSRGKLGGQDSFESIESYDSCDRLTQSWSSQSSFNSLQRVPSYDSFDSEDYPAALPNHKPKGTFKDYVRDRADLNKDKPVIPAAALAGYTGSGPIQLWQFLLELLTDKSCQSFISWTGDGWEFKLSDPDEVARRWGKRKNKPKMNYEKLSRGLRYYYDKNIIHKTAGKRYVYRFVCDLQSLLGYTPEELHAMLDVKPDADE
Chain of ETS1:RUNX1 (Q01196 whole entry, chain 2 of 2): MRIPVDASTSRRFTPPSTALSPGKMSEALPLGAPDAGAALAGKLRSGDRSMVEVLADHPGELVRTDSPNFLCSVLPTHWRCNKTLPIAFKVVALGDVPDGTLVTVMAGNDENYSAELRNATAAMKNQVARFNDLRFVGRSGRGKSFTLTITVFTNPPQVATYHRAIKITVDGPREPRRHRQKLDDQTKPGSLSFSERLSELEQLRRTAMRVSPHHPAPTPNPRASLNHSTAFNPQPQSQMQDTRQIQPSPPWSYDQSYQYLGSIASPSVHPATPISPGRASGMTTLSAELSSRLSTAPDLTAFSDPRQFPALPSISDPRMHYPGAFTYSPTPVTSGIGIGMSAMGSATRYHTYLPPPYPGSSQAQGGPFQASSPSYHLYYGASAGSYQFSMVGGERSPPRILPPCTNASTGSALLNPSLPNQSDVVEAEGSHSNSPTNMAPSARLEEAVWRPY

B1: Table S2 A row 1400 (dsDNA)
DNA 1: AGCTGCATTTCCGGGCAGGCAATGAAACCACAGAGT
DNA 2: ACTCTGTGGTTTCATTGCCTGCCCGGAAATGCAGCT
B1 was tested, and the binding signal was 3930 PBM fluorescence, median of replicate spots.

B2: Table S2 A row 1339 (dsDNA)
DNA 1: GTAGGGAAGACGGGATGTGGGTTTTCAGCCGTGGCC
DNA 2: GGCCACGGCTGAAAACCCACATCCCGTCTTCCCTAC
With B2 the binding signal was 4760 PBM fluorescence, median of replicate spots.

B3: Table S2 A row 733 (dsDNA)
DNA 1: CAGTGAACAGTTTCCTGTTCCTGTGGTTTTGACTTT
DNA 2: AAAGTCAAAACCACAGGAACAGGAAACTGTTCACTG
B3 was tested, and the binding signal was 5690 PBM fluorescence, median of replicate spots.

B4: Table S2 A row 233 (dsDNA)
DNA 1: TCCTATATACTTCCGTTTGCCTCGCGGTTTCTTTCT
DNA 2: AGAAAGAAACCGCGAGGCAAACGGAAGTATATAGGA
For B4, the binding signal was 4400 PBM fluorescence, median of replicate spots.

B5: Table S2 A row 145 (dsDNA)
DNA 1: TGGGGAACGCTGCGGATGCTGCGGTAAACCATGCGA
DNA 2: TCGCATGGTTTACCGCAGCATCCGCAGCGTTCCCCA
In the case of B5, the binding signal is reported as 5120 PBM fluorescence, median of replicate spots.

B6: Table S2 A row 391 (dsDNA)
DNA 1: TGCAAAAAAACAGGAAACACCCAGCCGCAAATTATA
DNA 2: TATAATTTGCGGCTGGGTGTTTCCTGTTTTTTTGCA
With B6 the binding signal was 6020 PBM fluorescence, median of replicate spots.

B7: Table S2 A row 813 (dsDNA)
DNA 1: AAGTTGATTTCCGGGTAGTCTGTGGTTTCCTAATCA
DNA 2: TGATTAGGAAACCACAGACTACCCGGAAATCAACTT
For B7, the binding signal was 4110 PBM fluorescence, median of replicate spots.

B8: Table S2 A row 426 (dsDNA)
DNA 1: GCCGGAAGCCACGCAGGGCCACGTCTGCGGTTCTGA
DNA 2: TCAGAACCGCAGACGTGGCCCTGCGTGGCTTCCGGC
In the case of B8, the binding signal is reported as 4460 PBM fluorescence, median of replicate spots.

B9: Table S2 A row 860 (dsDNA)
DNA 1: CTGAGCCGGATGTTACTGGTTAGTGGTTTTCTTTAT
DNA 2: ATAAAGAAAACCACTAACCAGTAACATCCGGCTCAG
For B9, the binding signal was 5210 PBM fluorescence, median of replicate spots.

B10: Table S2 A row 1268 (dsDNA)
DNA 1: GAATGGCGGATGTGGCTGGGGAGAGAAAGCCGCAGA
DNA 2: TCTGCGGCTTTCTCTCCCCAGCCACATCCGCCATTC
For B10, the binding signal was 4780 PBM fluorescence, median of replicate spots.

B11: Table S2 A row 995 (dsDNA)
DNA 1: GCGCCCTCCAGGAAACGCCGCGGTTTACTGTCTGCC
DNA 2: GGCAGACAGTAAACCGCGGCGTTTCCTGGAGGGCGC
With B11 the binding signal was 4310 PBM fluorescence, median of replicate spots.

B12: Table S2 A row 414 (dsDNA)
DNA 1: CGCCGAACTTCCGGCAGTAAATTCCGTGGTTTCCCT
DNA 2: AGGGAAACCACGGAATTTACTGCCGGAAGTTCGGCG
B12 was tested, and the binding signal was 5300 PBM fluorescence, median of replicate spots.

B13: Table S2 A row 34 (dsDNA)
DNA 1: GGAGGTGGGGAGGAAGTTCTGAAACCACACACATTT
DNA 2: AAATGTGTGTGGTTTCAGAACTTCCTCCCCACCTCC
With B13 the binding signal was 4160 PBM fluorescence, median of replicate spots.

B14: Table S2 A row 1363 (dsDNA)
DNA 1: ATGAGCTATTTCCTGCCTTGTGGTCAGAGCCAGACT
DNA 2: AGTCTGGCTCTGACCACAAGGCAGGAAATAGCTCAT
B14 was tested, and the binding signal was 5600 PBM fluorescence, median of replicate spots.

B15: Table S2 A row 1272 (dsDNA)
DNA 1: TTGAATATGAAAGGAAGTGGTTAGGTGATGTGTTCT
DNA 2: AGAACACATCACCTAACCACTTCCTTTCATATTCAA
For B15, the binding signal was 5150 PBM fluorescence, median of replicate spots.

B16: Table S2 A row 1225 (dsDNA)
DNA 1: GCTAGACAGGAAACAGTGAGCTTCTGTGGGCAGGAG
DNA 2: CTCCTGCCCACAGAAGCTCACTGTTTCCTGTCTAGC
For B16, the binding signal was 5960 PBM fluorescence, median of replicate spots.

B17: Table S2 A row 1241 (dsDNA)
DNA 1: AAGAAAAAGGGAGGATGTGGTTTAGCAAAAGCACTG
DNA 2: CAGTGCTTTTGCTAAACCACATCCTCCCTTTTTCTT
With B17 the binding signal was 5810 PBM fluorescence, median of replicate spots.

B18: Table S2 A row 877 (dsDNA)
DNA 1: GAGTGGGCGGAAATCCGTGCCTGGCAGACCACAAAG
DNA 2: CTTTGTGGTCTGCCAGGCACGGATTTCCGCCCACTC
For B18, the binding signal was 4940 PBM fluorescence, median of replicate spots.

B19: Table S2 A row 122 (dsDNA)
DNA 1: GAGAAACAGGAAGAGGGGTGGTGGTTACGGAACACG
DNA 2: CGTGTTCCGTAACCACCACCCCTCTTCCTGTTTCTC
B19 was tested, and the binding signal was 4040 PBM fluorescence, median of replicate spots.

B20: Table S2 A row 777 (dsDNA)
DNA 1: CAGGAGCAGTGTAGAGGAAGTGGTTTCCATCACGGA
DNA 2: TCCGTGATGGAAACCACTTCCTCTACACTGCTCCTG
In the case of B20, the binding signal is reported as 4870 PBM fluorescence, median of replicate spots.

B21: Table S2 A row 238 (dsDNA)
DNA 1: GCGCGGACAGAGAAAGGATGTGGTATAGCAGAAAGT
DNA 2: ACTTTCTGCTATACCACATCCTTTCTCTGTCCGCGC
For B21, the binding signal was 4350 PBM fluorescence, median of replicate spots.

B22: Table S2 A row 552 (dsDNA)
DNA 1: AACCATTACAGGATGTGAGATTCAAACCACTAACAG
DNA 2: CTGTTAGTGGTTTGAATCTCACATCCTGTAATGGTT
For B22, the binding signal was 4190 PBM fluorescence, median of replicate spots.

B23: Table S2 A row 1092 (dsDNA)
DNA 1: CTCACAGAGCAAGTAGGATGTGGTTTCCAGGGGCTG
DNA 2: CAGCCCCTGGAAACCACATCCTACTTGCTCTGTGAG
In the case of B23, the binding signal is reported as 5400 PBM fluorescence, median of replicate spots.

B24: Table S2 A row 1719 (dsDNA)
DNA 1: GCCACACTTCCGGCGGGGCTGCGACCGCAGAGGGGC
DNA 2: GCCCCTCTGCGGTCGCAGCCCCGCCGGAAGTGTGGC
B24 was tested, and the binding signal was 5900 PBM fluorescence, median of replicate spots.

B25: Table S2 A row 1154 (dsDNA)
DNA 1: GGCCTCGGCCACATCCGGGTTCCACCGCAGATTCGG
DNA 2: CCGAATCTGCGGTGGAACCCGGATGTGGCCGAGGCC
In the case of B25, the binding signal is reported as 5630 PBM fluorescence, median of replicate spots.

B26: Table S2 A row 1300 (dsDNA)
DNA 1: CAAGTAATCTGCTCAGGAAGTGGTTTGAATAGAGGA
DNA 2: TCCTCTATTCAAACCACTTCCTGAGCAGATTACTTG
With B26 the binding signal was 4710 PBM fluorescence, median of replicate spots.

B27: Table S2 A row 1553 (dsDNA)
DNA 1: GAAGGAAGTGGAGACAGTAAGGGGAAACCACAAACC
DNA 2: GGTTTGTGGTTTCCCCTTACTGTCTCCACTTCCTTC
For B27, the binding signal was 3570 PBM fluorescence, median of replicate spots.

B28: Table S2 A row 485 (dsDNA)
DNA 1: TGAAGTACTAGTCAAGGATGTGGTTTTACATAGCAG
DNA 2: CTGCTATGTAAAACCACATCCTTGACTAGTACTTCA
With B28 the binding signal was 4920 PBM fluorescence, median of replicate spots.

B29: Table S2 A row 1756 (dsDNA)
DNA 1: GCCAACAGGAAGCTGGAAGCCAACCGCACTGTGTGC
DNA 2: GCACACAGTGCGGTTGGCTTCCAGCTTCCTGTTGGC
In the case of B29, the binding signal is reported as 3630 PBM fluorescence, median of replicate spots.

B30: Table S2 A row 1124 (dsDNA)
DNA 1: ATCTTTTGATGAGGATGTGGTTTCCAGGCAGGTGCT
DNA 2: AGCACCTGCCTGGAAACCACATCCTCATCAAAAGAT
B30 was tested, and the binding signal was 4440 PBM fluorescence, median of replicate spots.

B31: Table S2 A row 1530 (dsDNA)
DNA 1: CCAGGCGGAAGCGGCCGGGAGTAGCGCTGCGGTTGG
DNA 2: CCAACCGCAGCGCTACTCCCGGCCGCTTCCGCCTGG
For B31, the binding signal was 5640 PBM fluorescence, median of replicate spots.

B32: Table S2 A row 717 (dsDNA)
DNA 1: GGACAGGAAGTTCCTGCAGCTTCTACCACAAACCTA
DNA 2: TAGGTTTGTGGTAGAAGCTGCAGGAACTTCCTGTCC
For B32, the binding signal was 4990 PBM fluorescence, median of replicate spots.

B33: Table S2 A row 189 (dsDNA)
DNA 1: TGGCAGAGCACATCCTGTGCGGTTTTCAGTTTTGCT
DNA 2: AGCAAAACTGAAAACCGCACAGGATGTGCTCTGCCA
In the case of B33, the binding signal is reported as 3840 PBM fluorescence, median of replicate spots.

B34: Table S2 A row 1035 (dsDNA)
DNA 1: AGTTGGTTCCTTCCGGTGGGTTTGTGGGTTTGGGGT
DNA 2: ACCCCAAACCCACAAACCCACCGGAAGGAACCAACT
For B34, the binding signal was 5250 PBM fluorescence, median of replicate spots.

B35: Table S2 A row 442 (dsDNA)
DNA 1: GGAAAAGGAAGTGGCTTTGACTTGCGGGCAGGGAGA
DNA 2: TCTCCCTGCCCGCAAGTCAAAGCCACTTCCTTTTCC
With B35 the binding signal was 3710 PBM fluorescence, median of replicate spots.

B36: Table S2 A row 1378 (dsDNA)
DNA 1: CAAGAGAAAGGAAGTGGAAGCTCTTGTGGTCTGGAA
DNA 2: TTCCAGACCACAAGAGCTTCCACTTCCTTTCTCTTG
B36 was tested, and the binding signal was 5370 PBM fluorescence, median of replicate spots.

B37: Table S2 A row 505 (dsDNA)
DNA 1: ACCCAGTAGGGGCCAGGATGTGGTGAAAAGAGAATT
DNA 2: AATTCTCTTTTCACCACATCCTGGCCCCTACTGGGT
For B37, the binding signal was 3620 PBM fluorescence, median of replicate spots.

B38: Table S2 A row 1723 (dsDNA)
DNA 1: CAACCCGGAAGCACTAACGGAGAAACCGCAACTCGG
DNA 2: CCGAGTTGCGGTTTCTCCGTTAGTGCTTCCGGGTTG
B38 was tested, and the binding signal was 5540 PBM fluorescence, median of replicate spots.

B39: Table S2 A row 585 (dsDNA)
DNA 1: TGTATGAAAAAAACAGGAAACCACAGAGAACTGAGG
DNA 2: CCTCAGTTCTCTGTGGTTTCCTGTTTTTTTCATACA
With B39 the binding signal was 4240 PBM fluorescence, median of replicate spots.

B40: Table S2 A row 274 (dsDNA)
DNA 1: ATGCCTTCTTCCAGAGGATGTGGTCGCTACTAGTGG
DNA 2: CCACTAGTAGCGACCACATCCTCTGGAAGAAGGCAT
With B40 the binding signal was 4270 PBM fluorescence, median of replicate spots.

B41: Table S2 A row 1073 (dsDNA)
DNA 1: ACCTTGCCTAGAGGAAGTGGTTTTTCGAATCTGAGT
DNA 2: ACTCAGATTCGAAAAACCACTTCCTCTAGGCAAGGT
With B41 the binding signal was 4490 PBM fluorescence, median of replicate spots.

B42: Table S2 A row 163 (dsDNA)
DNA 1: GATTGTTATGTCCGGAAACCGCTTATCAGAGCCCTG
DNA 2: CAGGGCTCTGATAAGCGGTTTCCGGACATAACAATC
With B42 the binding signal was 5000 PBM fluorescence, median of replicate spots.

B43: Table S2 A row 1325 (dsDNA)
DNA 1: GGACCGGTGTCTGGCGGATGCGGTCGTGAAGATAGG
DNA 2: CCTATCTTCACGACCGCATCCGCCAGACACCGGTCC
In the case of B43, the binding signal is reported as 4590 PBM fluorescence, median of replicate spots.

B44: Table S2 A row 1614 (dsDNA)
DNA 1: ACCTCAAGCCCAGGATGTGGTTTGGCCACTATTGAG
DNA 2: CTCAATAGTGGCCAAACCACATCCTGGGCTTGAGGT
With B44 the binding signal was 6100 PBM fluorescence, median of replicate spots.
